Measured values published in the supplement of paper PMC10567573.

B1: DCAF4 (parent)
chain: TTKCVRQYEGHVNEYAYLPLHVHE
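Note: lentivirally expressed fusions sorted by FACS into six bins by GFP to DsRed ratio, PSI derived from sequencing read proportions per bin multiplied by bin number.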

Variants of: B1
Test: protein stability index of a GFP-peptide fusion (GPS, HEK-293T) (PSI 1-6); higher = more stable
Details: c terminus: a fixed tail appended
TTKCVRQYEGHVNEYVYLPLHVHE gave a protein stability index of 2.2.
In the case of TTKCVRQYEGHVNEYRYLPLHVHE, the protein stability index is reported as 2.6.
With TTKCVRQYEGHVNEYQYLPLHVHE the protein stability index was 3.01.
Work on TTKCVRQYEGHVNEYKYLPLHVHE yielded a protein stability index of 2.71.
With TTKCVRQYEGHVNEYNYLPLHVHE the protein stability index was 2.6.
Work on TTKCVRQYEGHVNEYLYLPLHVHE yielded a protein stability index of 2.33.
With TTKCVRQYEGHVNEYEYLPLHVHE the protein stability index was 3.31.
TTKCVRQYEGHVNEYSYLPLHVHE showed a protein stability index of 2.45.
Work on TTKCVRQYEGHVNEYYYLPLHVHE yielded a protein stability index of 1.87.
With TTKCVRQYEGHVNEYFYLPLHVHE the protein stability index was 2.32.
Work on TTKCVRQYEGHVNEYGYLPLHVHE yielded a protein stability index of 2.13.
TTKCVRQYEGHVNEYWYLPLHVHE gave a protein stability index of 1.84.
TTKCVRQYEGHVNEYMYLPLHVHE gave a protein stability index of 2.34.
Work on TTKCVRQYEGHVNEYPYLPLHVHE yielded a protein stability index of 3.02.
Variant TTKCVRQYEGHVNEYHYLPLHVHE has a protein stability index of 3.05.
Variant TTKCVRQYEGHVNEYTYLPLHVHE has a protein stability index of 2.82.
For TTKCVRQYEGHVNEYIYLPLHVHE, the protein stability index was 2.2.
With TTKCVRQYEGHVNEYCYLPLHVHE the protein stability index was 2.44.
Work on TTKCVRQYEGHVNEYDYLPLHVHE yielded a protein stability index of 2.54.
In the case of TTKCVRQYEGHVQEYAYLPLHVHE, the protein stability index is reported as 2.32.
TTKCVRQYEGHVYEYAYLPLHVHE gave a protein stability index of 2.09.
Variant TTKCVRQYEGHVSEYAYLPLHVHE has a protein stability index of 2.78.
In the case of TTKCVRQYEGHVREYAYLPLHVHE, the protein stability index is reported as 2.31.
Variant TTKCVRQYEGHVTEYAYLPLHVHE has a protein stability index of 2.64.
With TTKCVRQYEGHVWEYAYLPLHVHE the protein stability index was 1.87.
Work on TTKCVRQYEGHVVEYAYLPLHVHE yielded a protein stability index of 2.23.
For TTKCVRQYEGHVNEYAYIPLHVHE, the protein stability index was 2.26.
Variant TTKCVRQYEGHVNEYAYPPLHVHE has a protein stability index of 2.75.
For TTKCVRQYEGHVNEYAYNPLHVHE, the protein stability index was 3.15.
Variant TTKCVRQYEGHVNEYAYMPLHVHE has a protein stability index of 2.82.
With TTKCVRQYEGHVNEYAYDPLHVHE the protein stability index was 3.8.
In the case of TTKCVRQYEGHVNEYAYKPLHVHE, the protein stability index is reported as 2.76.
TTKCVRQYEGHVNEYAYFPLHVHE showed a protein stability index of 2.51.
TTKCVRQYEGHVNEYAYGPLHVHE gave a protein stability index of 3.09.
With TTKCVRQYEGHVNEYAYCPLHVHE the protein stability index was 2.74.
For TTKCVRQYEGHVNEYAYAPLHVHE, the protein stability index was 2.92.
In the case of TTKCVRQYEGHVNEYAYEPLHVHE, the protein stability index is reported as 3.58.
With TTKCVRQYEGHVNEYAYHPLHVHE the protein stability index was 3.09.
For TTKCVRQYEGHVNHYAYLPLHVHE, the protein stability index was 2.05.
TTKCVRQYEGHVNQYAYLPLHVHE gave a protein stability index of 2.35.
In the case of TTKCVRQYEGHVNPYAYLPLHVHE, the protein stability index is reported as 2.57.
TTKCVRQYEGHVNYYAYLPLHVHE showed a protein stability index of 1.64.
TTKCVRQYEGHVNTYAYLPLHVHE gave a protein stability index of 2.23.
TTKCVRQYEGHVNVYAYLPLHVHE gave a protein stability index of 1.44.
Variant TTKCVRQYEGHVNRYAYLPLHVHE has a protein stability index of 2.34.
TTKCVRQYEGHVNDYAYLPLHVHE gave a protein stability index of 2.79.
Work on TTKCVRQYEGHVNGYAYLPLHVHE yielded a protein stability index of 2.29.
With TTKCVRQYEGHVNFYAYLPLHVHE the protein stability index was 3.16.
In the case of TTKCVRQYEGHVNWYAYLPLHVHE, the protein stability index is reported as 1.14.
Work on TTKCVRQYEGHVNAYAYLPLHVHE yielded a protein stability index of 1.85.
For TTKCVRQYEGHVNNYAYLPLHVHE, the protein stability index was 2.47.
Work on TTKCVRQYEGHVNLYAYLPLHVHE yielded a protein stability index of 1.63.
TTKCVRQYEGHVNCYAYLPLHVHE gave a protein stability index of 2.03.
Work on TTKCVRQYEGHVNSYAYLPLHVHE yielded a protein stability index of 2.05.
With TTKCVRQYEGHVNKYAYLPLHVHE the protein stability index was 2.64.
Work on TTKCVRQYEGHVNMYAYLPLHVHE yielded a protein stability index of 1.43.
In the case of TTKCVRQYEGHVNEYAHLPLHVHE, the protein stability index is reported as 2.94.
Work on TTKCVRQYEGHVNEYATLPLHVHE yielded a protein stability index of 3.65.
TTKCVRQYEGHVNEYADLPLHVHE showed a protein stability index of 4.01.
With TTKCVRQYEGHVNEYAGLPLHVHE the protein stability index was 3.37.
With TTKCVRQYEGHVNEYAWLPLHVHE the protein stability index was 2.69.
For TTKCVRQYEGHVNEYAQLPLHVHE, the protein stability index was 3.27.
For TTKCVRQYEGHVNEYAILPLHVHE, the protein stability index was 2.86.
For TTKCVRQYEGHVNEYAKLPLHVHE, the protein stability index was 2.96.
In the case of TTKCVRQYEGHVNEYASLPLHVHE, the protein stability index is reported as 3.24.
Variant TTKCVRQYEGHVNEYAPLPLHVHE has a protein stability index of 3.82.
TTKCVRQYEGHVNEYAELPLHVHE showed a protein stability index of 4.23.
TTKCVRQYEGHVNEYAALPLHVHE gave a protein stability index of 4.37.
With TTKCVRQYEGHVNEYARLPLHVHE the protein stability index was 3.06.
With TTKCVRQYEGHVNEYAVLPLHVHE the protein stability index was 2.81.
With TTKCVRQYEGHVNEYANLPLHVHE the protein stability index was 3.08.
Work on TTKCVRQYEGHVNEYALLPLHVHE yielded a protein stability index of 3.79.
With TTKCVRQYEGHVNEYAMLPLHVHE the protein stability index was 3.06.
TTKCVRQYEGHVNEYACLPLHVHE showed a protein stability index of 3.51.
For TTKCVRQYEGHVNEYAFLPLHVHE, the protein stability index was 2.55.
For TTKCVRQYEGHVNEKAYLPLHVHE, the protein stability index was 2.85.
TTKCVRQYEGHVNEAAYLPLHVHE gave a protein stability index of 3.57.
With TTKCVRQYEGHVNEFAYLPLHVHE the protein stability index was 3.08.
TTKCVRQYEGHVNEEAYLPLHVHE showed a protein stability index of 3.6.
TTKCVRQYEGHVNEHAYLPLHVHE showed a protein stability index of 3.02.
Variant TTKCVRQYEGHVNEMAYLPLHVHE has a protein stability index of 2.96.
For TTKCVRQYEGHVNEGAYLPLHVHE, the protein stability index was 3.84.
Work on TTKCVRQYEGHVNEIAYLPLHVHE yielded a protein stability index of 3.09.
TTKCVRQYEGHVNEPAYLPLHVHE gave a protein stability index of 3.51.
Variant TTKCVRQYEGHVNEQAYLPLHVHE has a protein stability index of 3.32.
Work on TTKCVRQYEGHVNERAYLPLHVHE yielded a protein stability index of 3.43.
In the case of TTKCVRQYEGHVNELAYLPLHVHE, the protein stability index is reported as 2.97.
TTKCVRQYEGHVNEVAYLPLHVHE gave a protein stability index of 3.
Work on TTKCVRQYEGHVNEWAYLPLHVHE yielded a protein stability index of 2.12.
Work on TTKCVRQYEGHVNETAYLPLHVHE yielded a protein stability index of 2.59.
TTKCVRQYEGHVNESAYLPLHVHE gave a protein stability index of 3.28.
TTKCVRQYEGHVNECAYLPLHVHE showed a protein stability index of 3.56.
With TTKCVRQYEGHVNENAYLPLHVHE the protein stability index was 2.88.
Work on TTKCVRQYEGHVNEDAYLPLHVHE yielded a protein stability index of 3.36.
